Results reported in patent US20190300618A1 (Merck Sharp & Dohme, published 2019).
Numbering of substitutions follows the chain as printed. Blank lines part the entries; values can stand above or below the molecule they belong to.

What was measured:
Test in all cases: flow cytometry, CHO-K1; sub-column 2 of 2
W13A = target: T1, W13A
T1 construct: also called hCD27 W13A
T1 receptor: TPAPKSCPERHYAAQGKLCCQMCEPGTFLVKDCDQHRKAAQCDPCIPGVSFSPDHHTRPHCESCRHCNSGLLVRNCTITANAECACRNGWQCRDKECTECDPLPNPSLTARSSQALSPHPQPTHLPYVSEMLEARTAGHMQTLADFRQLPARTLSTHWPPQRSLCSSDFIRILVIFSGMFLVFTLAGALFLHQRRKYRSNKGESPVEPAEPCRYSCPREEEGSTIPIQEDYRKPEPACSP

G16A = target: T2, G16A
T2 construct: also called hCD27 G16A
T2 receptor: T1 receptor with A13W, G16A

F28A = target: T3, F28A
T3 construct: also called hCD27 F28A
T3 receptor: T1 receptor with A13W, F28A

V30A = target: T4, V30A
T4 construct: also called hCD27 V30A
T4 receptor: T1 receptor with A13W, V30A

D43A = target: T5, D43A
T5 construct: also called hCD27 D43A
T5 receptor: T1 receptor with A13W, D43A

I46A = target: T6, I46A
T6 construct: also called hCD27 I46A
T6 receptor: T1 receptor with A13W, I46A

V49A = target: T7, V49A
T7 construct: also called hCD27 V49A
T7 receptor: T1 receptor with A13W, V49A

H60A = target: T8, H60A
T8 construct: also called hCD27 H60A
T8 receptor: T1 receptor with A13W, H60A

R87A = target: T9, R87A
T9 construct: also called hCD27 R87A
T9 receptor: T1 receptor with A13W, R87A

E9A = target: T10, E9A
T10 construct: also called hCD27 E9A
T10 receptor: T1 receptor with E9A, A13W

% of WT hCD27 binding (geo mean FITC) (W13A): 93.4%
% of WT hCD27 binding (geo mean FITC) (G16A): 97.3%
% of WT hCD27 binding (geo mean FITC) (F28A): 60%
% of WT hCD27 binding (geo mean FITC) (V30A): 102%
% of WT hCD27 binding (geo mean FITC) (D43A): 93.4%
% of WT hCD27 binding (geo mean FITC) (I46A): 82.7%
% of WT hCD27 binding (geo mean FITC) (V49A): 97%
% of WT hCD27 binding (geo mean FITC) (H60A): 120%
% of WT hCD27 binding (geo mean FITC) (R87A): 108%
% of WT hCD27 binding (geo mean FITC) (E9A): 122%
Molecule: 1A4 (mouse IgG1) (antibody)

% of WT hCD27 binding (geo mean FITC) (W13A): 86.5%
% of WT hCD27 binding (geo mean FITC) (G16A): 102%
% of WT hCD27 binding (geo mean FITC) (F28A): 58.2%
% of WT hCD27 binding (geo mean FITC) (V30A): 95.6%
% of WT hCD27 binding (geo mean FITC) (D43A): 92.5%
% of WT hCD27 binding (geo mean FITC) (I46A): 82.7%
% of WT hCD27 binding (geo mean FITC) (V49A): 92.1%
% of WT hCD27 binding (geo mean FITC) (H60A): 126%
% of WT hCD27 binding (geo mean FITC) (R87A): 98.8%
% of WT hCD27 binding (geo mean FITC) (E9A): 109%
Molecule: 9F4 (mouse IgG2a) (antibody)

% of WT hCD27 binding (geo mean FITC) (W13A): 88.6%
% of WT hCD27 binding (geo mean FITC) (G16A): 108%
% of WT hCD27 binding (geo mean FITC) (F28A): 57.1%
% of WT hCD27 binding (geo mean FITC) (V30A): 94%
% of WT hCD27 binding (geo mean FITC) (D43A): 96.2%
% of WT hCD27 binding (geo mean FITC) (I46A): 75%
% of WT hCD27 binding (geo mean FITC) (V49A): 99.8%
% of WT hCD27 binding (geo mean FITC) (H60A): 129%
% of WT hCD27 binding (geo mean FITC) (R87A): 111%
% of WT hCD27 binding (geo mean FITC) (E9A): 132%
B1: Antibody hCD27.131A (mouse parental 131A) (antibody, V domains shown)
VH: QIQLVQSGPELKKPGETVKISCKASGYTFTNYGMNWVKQAPGKGLKWMGWINTNTGEPTYAEEFKGRFAFSLETSATTAYLQINNLKNEDTATYFCAREGDAMDYWGQGTSVTVSS
VL: QIVLTQSPAIMSASPGEKVTMTCSASSSVSYMHWYQQKSGTSPKRWIYDTSKLASGVPARFSGSGSGTSYSLTISSMEAEDAATYYCQQWNSYPFTFGSGTKLEIK
notes: mouse IgG1; also called mouse hCD27.131A
